According to PMC8016914:

Molecular target: T1, PsbS modified to contain a strep-tag at the C terminus (Arabidopsis thaliana), Q9XF91
T1 chain: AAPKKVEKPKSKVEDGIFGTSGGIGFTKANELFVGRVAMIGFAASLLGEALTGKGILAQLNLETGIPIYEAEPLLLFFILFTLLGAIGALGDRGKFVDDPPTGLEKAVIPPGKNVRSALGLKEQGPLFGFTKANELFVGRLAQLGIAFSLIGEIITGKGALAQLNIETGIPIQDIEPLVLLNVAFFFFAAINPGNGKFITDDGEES
Assay: SDS-PAGE and immunoblot; PsbS in detergent and in LHCII + PsbS proteoliposomes (thylakoid lipids); monomeric (M) and dimeric (D) bands detected with an anti-PsbS antibody
Details: remark: other sources report otherwise

B1: PsbS modified to contain a strep-tag at the C terminus, Q9XF91 60-265 (natural protein)
chain: T1 chain
Binder B1 has a stoichiometry N of 2.
